{
  "source": "paper doi:10.1101/2021.02.25.432905",
  "about": "(bioRxiv, 2021)",
  "binders": {"B1": {"name": "350-145 (antibody, V domains shown)", "VH": "EVQLVESGGGLVQPGGSLRLSCSASGFTFSSYSMNWVRQAPGKGLEWLSYISSSSGSKYYADSVKGRFTISRDNAKNLVYLQMSSLRADDAAMYYCARSDYAVFYYGMDVWGQGTTVTVSS", "VL": "EIVMTQSPATLSVSPGERATLSCRASQSVSSNLAWYQQKPGQAPRLLIYGASTRATGIPARFSGSGSGTEFTLTISSLQSEDFAVYYCQQYYNWPPLTFGGGTKVEIK"}},
  "target": "A/California/7/2009 HA (recombinant HA, rHA) (Influenza A virus A/California/07/2009 …, UniProt C3W5X2)",
  "data": [
    {"binder": "B1", "values": [
      {"measurement": "binding result", "value": "binds"}
    ]}
  ]
}
